Experimental data: article PMC9331743, “Portable Vertical Graphene@Au-Based Electrochemical Aptasensing Platform for Point-of-Care Testing of Tau Protein in the Blood”

Target: Tau441 (tau protein) (UniProt P10636-8 1-441)
Assay: electrochemical aptasensor (DPV); aptamer on VG@Au electrode, MCH blocked; LOD 0.034 pg/mL, linear 0.1 pg/mL-1 ng/mL (not a Kd); Tau in PBS (10 mM, pH 7.4), 1 h at 37 C on electrode; DPV read in 5 mM Fe(CN)6 3-/4- with 0.1 M KCl
Conditions: protein: commercial

Sequence of Tau441 (tau protein) (P10636 other isoform, or with tags, fused parts or gaps): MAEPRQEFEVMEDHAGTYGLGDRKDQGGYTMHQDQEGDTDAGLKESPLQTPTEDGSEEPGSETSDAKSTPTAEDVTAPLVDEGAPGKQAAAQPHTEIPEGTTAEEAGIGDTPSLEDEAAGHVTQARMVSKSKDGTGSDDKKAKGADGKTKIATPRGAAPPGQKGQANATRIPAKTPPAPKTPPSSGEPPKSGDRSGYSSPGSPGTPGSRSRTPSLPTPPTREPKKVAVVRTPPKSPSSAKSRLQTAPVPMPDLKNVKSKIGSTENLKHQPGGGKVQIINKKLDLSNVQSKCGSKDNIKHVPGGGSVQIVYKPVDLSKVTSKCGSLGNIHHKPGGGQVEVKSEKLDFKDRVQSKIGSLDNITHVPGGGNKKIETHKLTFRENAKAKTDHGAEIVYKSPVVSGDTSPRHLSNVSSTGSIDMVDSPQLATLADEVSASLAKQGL

B1: tau DNA aptamer (ssDNA)
DNA: CAGCACCGTCAACTGAATGGGTTGGCCGGGCAGCGGGGGGTAGGCTGGTGATGCGATGGAGATGT
modifications: 5' SH-(CH2)6 thiol linker
B1: binds.
